Measurements from publication PMC4663108 (Journal of molecular biology, 2015).

Biological target: DnaK D45C-biotin (E. coli, UniProt P0A6Y8 1-638, D45C, biotin (labeled with a 20-fold excess of Maleimide-PEG11-Biotin))
Test: pull-down

binding result: binds
B1: CbpA (natural protein, E. coli, UniProt P36659 1-306, looked up)
chain: MELKDYYAIMGVKPTDDLKTIKTAYRRLARKYHPDVSKEPDAEARFKEVAEAWEVLSDEQRRAEYDQMWQHRNDPQFNRQFHHGDGQSFNAEDFDDIFSSIFGQHARQSRQRPATRGHDIEIEVAVFLEETLTEHKRTISYNLPVYNAFGMIEQEIPKTLNVKIPAGVGNGQRIRLKGQGTPGENGGPNGDLWLVIHIAPHPLFDIVGQDLEIVVPVSPWEAALGAKVTVPTLKESILLTIPPGSQAGQRLRVKGKGLVSKKQTGDLYAVLKIVMPPKPDENTAALWQQLADAQSSFDPRKDWGKA
